The record followed here is patent US8318473B2, “Biofuel production” (Bio Architecture Lab, Inc., priority 2007, dated 2012).

Holding throughout (type): biochemical
Data set [1] in a line: NADH/NADPH production assay, oxidation of 4-octanol by secondary alcohol dehydrogenases. The following applies: 30° C.; for oxidation of 4-octanol as measured by NADPH production: in the presence of NADP+, FIG. 30B. As to the method: […] consumption and production assays were performed using a THERMOmax microplate reader in the kinetic mode, monitoring the NADPH absorbance peak at 340 nm until the reaction reached equilibrium. […] These reaction conditions are found in Table 4 below.

Data set [2] can be described thus: NADPH dependent DEHU hydrogenation assay (DEHU hydrogenase). The following applies: E. coli cell lysate containing each ADH; NADPH consumption at 340 nm for 30 min; FIG. 7A. As for the experimental part: (§1) To identify DEHU hydrogenase, a NADPH dependent DEHU hydrogenation assay was performed. 20 μl of prepared cell lysate containing each ADH was added to 160 μl of 20-fold deluted DEHU solution prepared in the above section. 20 μl of 2.5 mg/ml of NADPH solution (20 mM Tris-HCl, pH 8.0) was added to initiate the hydrogenation reaction, as a preliminary study using cell Lysate of A. tumefaciens C58 have shown that DEHU hydrogenation requires NADPH as a co-factor. The consumption of NADPH was monitored an absorbance at 340 nm for 30 min using the kinetic mode of ThermoMAX 96 well plate reader (Molecular Devises). E. coli cell lysate containing alcohol dehydrogenase (ADH) 10 lacking a portion of N-terminal domain was used in a control reaction mixture.

Data set [3] in a line: NADPH dependent D-mannuronate hydrogenation assay (D-mannuronate hydrogenase). The conditions noted are these: E. coli cell lysate containing each ADH; NADPH consumption at 340 nm for 30 min; FIG. 7B. As to the method: as §1, with “D-mannuronate” for “DEHU”, “D-mannuronate” for “20-fold deluted DEHU”, “reaction.” for “reaction, as a preliminary study using cell Lysate of A. tumefaciens C58 have shown that DEHU hydrogenation requires NADPH as a co-factor.”

B1: 2ADH-2: secondary alcohol dehydrogenase isolated from Pseudomonas putida KT2440, SEQ ID NO: 112 (protein)
chain: MSMTFSGQVALVTGAGAGIGRATALAFAHEGMKVVVADLDPVGGEATVAQIHAAGGEALFIACDVTRDAEVRQLHERLMAAYGRLDYAFNNAGIEIEQHRLAEGSEAEFDAIMGVNVKGVWLCMKYQLPLLLAQGGGAIVNTASVAGLGAAPKMSIYSASKHAVIGLTKSAAIEYAKKGIRVNAVCPAVIDTDMFRRAYQADPRKAEFAAAMHPVGRIGKVEEIASAVLYLCSDGAAFTTGHCLTVDGGATAI
modifications: Pseudomonas putida KT2440
Consider B1, for which the “oxidation of 4-octanol as measured by NADH production” value in data set [1] (in the presence of NAD+, FIG. 30A) is recorded as “catalyzes the oxidation of 4-octanol”.

B2: ADH1: alcohol dehydrogenase isolated from Agrobacterium tumefaciens C58, polypeptide SEQ ID NO: 70 (protein)
chain: MFTTSAYACDDGSSPMKLATIRRRDPGPRDVEIEIEFCGVCHSDIHTARSEWPGSLYPCVPGHEIVGRVGRVGAQVTRFKTGDRVGVGCIVDSCRECASCAEGLEQYCENGMTGTYNSPDKAMGGGAHTLGGYSAHVVVDDRYVLNIPEGLDPAAAAPLLCAGITTYSPLRHWNAGPGKRVGVVGLGGLGHMAVKLANAMGATVVMITTSPGKAEDAKKLGAHEVIISRDAEQMKKATSSLDLIIDAVAADHDIDAYLALLKRDGALVQVGAPEKPLSVMAFSLIPGRKTFAGSMIGGIPETQEMLDFCAEKGIAGEIEMIDIDQINDAYERMIKSDVRYRFVIDMKSLPRQKAA
modifications: Agrobacterium tumefaciens C58
As for B2, in data set [2], the DEHU hydrogenase activity result is “significant DEHU hydrogenase activity”.

B3: ADH9: alcohol dehydrogenase isolated from Agrobacterium tumefaciens C58, polypeptide SEQ ID NO: 86 (protein)
chain: MKAIVAHGAKDVRIEDRPEEKPGPGEVRLRLARGGICGSDLHYYNHGGFGAVRLREPMVLGHEVSAVIEELGEGVEGLKIGGLVAVSPSRPCRTCRFCQEGLHNQCLNMRFYGSAMPFPHIQGAFREILVADALQCVPADGLSAGEAAMAEPLAVTLHATRRAGDLLGKRVLVTGCGPIGILSILAARRAGAAEIVATDLSDFTLGKAREAGADRVINSKDEPDALAAYGANKGTFDILYECSGAAVALAGGITALRPRGIIVQLGLGGDMSLPMMAITAKELDLRGSFRFHEEFATGVELMRKGLIDVKPFITQTVDLADAISAFEFASDRSRAMKVQIAFS
modifications: Agrobacterium tumefaciens C58
B3: in data set [3], the mannuronate hydrogenase activity result is reported as “significant mannuronate hydrogenase activity”.

B4: 2ADH-8: secondary alcohol dehydrogenase isolated from Pseudomonas putida KT2440, SEQ ID NO: 124 (protein)
chain: MSLQGKVALVTGASRGIGQAIALELGRQGATVIGTATSASGAERIAATLKEHGITGTGMELNVTSAESVEAVLAAIGEQFGAPAILVNNAGITRDNLMLRMKDDEWFDVIDTNLNSLYRLSKGVLRGMTKARWGRIISIGSVVGAMGNAGQANYAAAKAGLEGFSRALAREVGSRGITVNSVTPGFIDTDMTRELPEAQREALQTQIPLGRLGQADEIAKVVSFLASDGAAYVTGATVPVNGGMYM
modifications: Pseudomonas putida KT2440
Consider B4, for which, in data set [1], the “oxidation of 4-octanol as measured by NADPH production” value (from here on “oxidation … by NADPH production”) is “catalyze the oxidation of 4-octanol”.

B5: 2ADH-10: secondary alcohol dehydrogenase isolated from Pseudomonas putida KT2440, SEQ ID NO: 128 (protein)
chain: MSKTHLFDLDGKIAFVSGASRGIGEAIAHLLAQQGAHVIVSSRKLDGCQQVADAIIAAGGKATAVACHIGELEQIQQVFAGIREQFGRLDVLVNNAATNPQFCNVLDTDPGAFQKTVDVNIRGYFFMSVEAGKLMRENGGGSIINVASINGVSPGLFQGIYSVTKAAVINMTKVFAKECAPFGIRCNALLPGLTDTKFASALVKNEAILNAALQQIPLKRVADPKEMAGAVLYLASDASSYTTGTTLNVDGGFLS
modifications: Pseudomonas putida KT2440
With B5, the “oxidation … by NADPH production” value in data set [1] is listed as “catalyze the oxidation of 4-octanol”.

B6: 2ADH-5: secondary alcohol dehydrogenase isolated from Pseudomonas putida KT2440, SEQ ID NO: 118 (protein)
chain: MSKQLTLEGKVALVQGGSRGIGAAIVRRLAREGAQVAFTYVSSAGPAEELAREITENGGKALALRADSADAAAVQLAVDDTEKALGRLDILVNNAGVLAVAPVTEFDLADFDHMLAVNVRSVFVASQAAARYMGQGGRIINIGSTNAERMPFAGGAPYAMSKSALVGLTRGMARDLGPQGITVNNVQPGPVDTDMNPASGEFAESLIPLMAIGRYGEPEEIASFVAYLAGPEAGYITGASLTVDGGFAA
modifications: Pseudomonas putida KT2440
Consider B6, for which the “oxidation … by NADPH production” value in data set [1] is reported as “catalyze the oxidation of 4-octanol”.

B7: ADH4: alcohol dehydrogenase isolated from Agrobacterium tumefaciens C58, polypeptide SEQ ID NO: 76 (protein)
chain: MTGANQPWEVQEVPVPKAEPGLVLVKIHASGMCYTDVWATQGAGGDIYPQTPGHEVVGEIIEVGAGVHTRKVGDRVGTTWVQSSCGRCSYCRQNRPLTGQTAMNCDSPRTTGFATQGGHAEYIAISAEGTVLLPDGLDYTDAAPMMCAGYTTWSGLRDAEPKPGDRIAVLGIGGLGHVAVQFSKALGFETIAITHSPDKHKLATDLGADIVVADGKELLEAGGADVLLVTTNDFDTAEKAMAGVRPDGRIVLCALDFSKPFSIPSDGKPFHMMRQRVVGSTHGGQHYLAEILDLAAKGKVKPIVETFALEQATEAYERLSTGKMRFRGVFLPHGA
modifications: Agrobacterium tumefaciens C58
For B7, the mannuronate hydrogenase activity entry in data set [3] is reported as “significant mannuronate hydrogenase activity”.

B8: ADH2: alcohol dehydrogenase isolated from Agrobacterium tumefaciens C58, polypeptide SEQ ID NO: 72 (protein)
chain: MAIARGYAATDASKPLTPFTFERREPNDDDVVIDIKYAGICHSDIHTVRNEWHNAVYPIVPGHEIAGVVRAVGSKVTRFKVGDHVGVGCFVDSCVGCATRDVDNEQYMPGLVQTYNSVERDGKSATQGGYSDHIVVREDYVLSIPDNLPLDASAPLLCAGITLYSPLQHWNAGPGKKVAIVGMGGLGHMGVKIGSAMGADITVLSQTLSKKEDGLKLGAKEYYATSDASTFEKLAGTFDLILCTVSAEIDWNAYLNLLKVNGTMVLLGVPEHAIPVHAFSVIPARRSLAGSMIGSIKETQEMLDFCGKHDIVSEIETIGIKDVNEAYERVLKSDVRYRFVIDMASLDA
modifications: Agrobacterium tumefaciens C58
As to B8, in data set [2], the DEHU hydrogenase activity result is “significant DEHU hydrogenase activity”.

B9: ADH3: alcohol dehydrogenase isolated from Agrobacterium tumefaciens C58, polypeptide SEQ ID NO: 74 (protein)
chain: MTKTMKAAVVRAFGKPLTIEEVAIPDPGPGEILINYKATGVCHTDLHAATGDWPVKPNPPFIPGHEGAGYVAKIGAGVTGIKEGDRAGTPWLYTACGCCIPCRTGWETLCPSQKNSGYSVNGSFAEYGLADPKFVGRLPDNLDFGPAAPVLCAGVTVYKGLKETEVRPGEWVVISGIGGLGHMAVQYAKAMGMHVVAADIFDDKLALAKKLGADVVVNGRAPDAVEQVQKATGGVHGALVTAVSPKAMEQAYGFLRSKGTMALVGLPPGFISIPVFDTVLKRITVRGSIVGTRQDLEEALTFAGEGKVAAHFSWDKLENINDIFHRMEEGKIDGRIVVDLAA
modifications: Agrobacterium tumefaciens C58
As to B9, the mannuronate hydrogenase activity result in data set [3] is “significant mannuronate hydrogenase activity”.
